The values below are quoted from earlier work in article PMC9499636.

The target in data set [1] is Ship2 Sam (Homo sapiens) (UniProt O15357). Nature of the data set: ITC.
Data set [2] shares this target. Nature of the data set: SPR. On the technique in general: Surface plasmon resonance follows binding to a sensor surface in real time, without labels.
Data set [3] concerns the target EphA2 Sam (Homo sapiens) (UniProt P29317). Nature of the data set: ITC. Background: Isothermal titration calorimetry measures the heat released or taken up as one component is titrated into another.
For data set [4] the target is unchanged. Put plainly: SPR.
Data set [5] concerns the target EphA2-Sam Sam (Homo sapiens) (UniProt P29317). Put plainly: SPR.

Sequence of UniProt O15357 (O15357 1193-1258): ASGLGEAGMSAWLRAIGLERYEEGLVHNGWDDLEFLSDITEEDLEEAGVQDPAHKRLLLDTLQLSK

For EphA2 Sam (from UniProt P29317), the figures for the Kd with Ship2 Sam (Homo sapiens) [1] and in the data set with Ship2 Sam (Homo sapiens) [2] were 0.75 µM and 2.2 µM, respectively.

Turning to Odin Sam1 (from UniProt Q92625), the Kd (usually a measure of binding affinity in units of concentration) was 0.62 µM with EphA2 Sam (Homo sapiens) [3] and 5.5 µM with EphA2 Sam (Homo sapiens) [4].

In the case of Pep2 (from UniProt Q92625), the Kd in data set [5] was 222 µM.

On to Pep3 (from UniProt Q92625), for which, in data set [5], the Kd is 523 µM.
